The results in this text go back to ChEMBL document CHEMBL1250451, “Mechanistic insights into a Ca2+-dependent family of alpha-mannosidases in a human gut symbiont” (Nat Chem Biol, 2010).

What all share (format): protein assay
Substrate in data set [1]: O=[N+]([O-])c1ccc(O[C@H]2O[C@H](CO)[C@@H](O)[C@H](O)[C@@H]2O)cc1
As to the kind of experiment: (§1) Ratio of Kcat to Km for Bacteroides thetaiotaomicron GH92 alpha-mannosidase GH92 alpha-mannosidase 3784 assessed as mannose release after 16 hrs by HPLC.

Substrate in data set [2]: OC[C@H]1O[C@H](O[C@H]2[C@@H](O)[C@H](O)[C@@H](CO)O[C@@H]2O)[C@@H](O)[C@@H](O)[C@@H]1O
The data set is described as §1.

Substrate in data set [3]: O=[N+]([O-])c1ccc(O[C@H]2O[C@H](CO)[C@@H](O)[C@H](O)[C@@H]2O)cc1
The data set can be described thus: (§2) Activity of Bacteroides thetaiotaomicron GH92 alpha-mannosidase GH92 alpha-mannosidase 3784 assessed as mannose release after 16 hrs by HPLC.

Substrate in data set [4]: OC[C@H]1O[C@H](O[C@H]2[C@@H](O)[C@H](O)[C@@H](CO)O[C@@H]2O)[C@@H](O)[C@@H](O)[C@@H]1O
The description is as §2.

Substrate in data set [5]: O=[N+]([O-])c1ccc(O[C@H]2O[C@H](CO)[C@@H](O)[C@H](O)[C@@H]2O)cc1
As to the kind of experiment: (§3) Ratio of Kcat to Km for Bacteroides thetaiotaomicron GH92 alpha-mannosidase GH92 alpha-mannosidase 3530 assessed as mannose release after 16 hrs by HPLC.

Substrate in data set [6]: OC[C@H]1O[C@H](O[C@H]2[C@H](O)[C@H](O)[C@@H](O)O[C@@H]2CO)[C@@H](O)[C@@H](O)[C@@H]1O
Described as §3.

Substrate in data set [7]: O=[N+]([O-])c1ccc(O[C@H]2O[C@H](CO)[C@@H](O)[C@H](O)[C@@H]2O)cc1
The data set can be described thus: (§4) Activity of Bacteroides thetaiotaomicron GH92 alpha-mannosidase GH92 alpha-mannosidase 3530 assessed as mannose release after 16 hrs by HPLC.

Substrate in data set [8]: OC[C@H]1O[C@H](O[C@H]2[C@H](O)[C@H](O)[C@@H](O)O[C@@H]2CO)[C@@H](O)[C@@H](O)[C@@H]1O
The description is as §4.

Substrate in data set [9]: O=[N+]([O-])c1ccc(O[C@H]2O[C@H](CO)[C@@H](O)[C@H](O)[C@@H]2O)cc1
As to the kind of experiment: Ratio of Kcat to Km for Bacteroides thetaiotaomicron GH92 alpha-mannosidase GH92 alpha-mannosidase 3991 assessed as mannose release after 16 hrs by HPLC.

Substrate in data set [10]: O=[N+]([O-])c1ccc(O[C@H]2O[C@H](CO)[C@@H](O)[C@H](O)[C@@H]2O)cc1
As to the kind of experiment: Activity of Bacteroides thetaiotaomicron GH92 alpha-mannosidase GH92 alpha-mannosidase 3991 assessed as mannose release after 16 hrs by HPLC.

By kcat/Km is commonly meant the turnover number divided by the Michaelis constant. Broadly, the Km is the substrate concentration at which the rate is half of its maximum. For orientation: kcat means the maximal rate divided by the concentration of active sites.

B1: Alpha-1,2-mannosidase (BT_3784) (Bacteroides thetaiotaomicron), Q8A182 (protein)
chain: MKTHFSFKHLLFIGGAVLYSMQISAVKNPVDYVSTLVGTQSKFELSTGNTYPATALPWGMNFWTPQTGKMGDGWAYTYNADKIRGFKQTHQPSPWMNDYGQFSIMPITGGLVFDQDQRASWFSHKAEVAKPYYYKVYLADHDVTTELVPTERAAMFRFTYPETKNAYVVIDAFDKGSYVKVIPEENKIIGYSTKNSGGVPENFKNYFVIQFDKPFTFTSGVKENNILPNETEVQGNHTGAIIGFATQKGEIVHARVASSFISYEQAELNLKELGKDSFDQLVTKGKDIWNREMSKVDVEDDNIDNLRTFYSCLYRSMLFPRSFYEIDAKGQVVHYSPYNGKVLPGYMFTDTGFWDTFRCLFPFLNLMYPSMNQKMQEGLVNAYLESGFLPEWASPGHRDCMVGNNSASVVADAYIKGLRGYDIETLWEALKHDANAHLRGTASGRLAYDAYNKLGYVPNNIGIGQNVARTLEYAYNDWTIYTLGKKLGKPASEIDIFKQRALNYKNVYHPKRKLMVGKDDKGVFNPKFDAVDWSGEFCEGNSWHWSFCVFHDPQGLIDLMGGKKEFNNMMDSVFVIPGKQGMESRGMIHEMREMQVMNMGQYAHGNQPIQHMVYLYNYSGEPWKAQHWVREIMDKLYTAGPDGYCGDEDNGQTSAWYVFSALGFYPVCPGTDQYILGTPLFKSAKLHLENGKTVTIKASNNNTDNRYVKDMKVNGKAFTRNYLTHDQLLKGANIQYQMSPTPNKQRGTTEKDIPYSLSFE
On to B1, for which the figures for the kcat/Km in [1] and in [2] were 11.5 M⁻¹ s⁻¹ and 183 M⁻¹ s⁻¹, respectively. In addition, the Km in data set [3] came to 6900 µM; in data set [4], 2300 µM. The kcat in data set [3] came to 0.08 s⁻¹; in [4], 0.45 s⁻¹.

B2: Alpha-1,2-mannosidase (BT_3530) (Bacteroides thetaiotaomicron), Q8A1X8 (protein)
chain: MTPSVAQNTKYVNLFIGTSGDNGQVAPGAAAPFGMVCVCPDNDPRSHAGYDYAVTKVSGISVNRLSGVGCSGGGGNLRIRPVAPSQELHIKKSREKATPGYYSTAFTNGIKTELTATNAMAVERYKFPRSLSAALWIDFASTFEDVATCHYKRISETCIEGYVQAKNVCGHGCYKLYFSLNTSQPFQLEEQKETTACLTFGKKVRSVEVRIGLSALSSELASWECARWEKMDFEDVKSRTADQWEKQLSAIDVKGGKKDDRVIFYTSLYRTYLSPADVSSPDGAYLGTDGKVYISEDFRYYSNWSLWDTFRTKFPLLVLTEPAKMRDMATSLIHLYATGKKDWSTGFESTPTVRTEHAVILLLDAYRKGITNLDFRKGYAGMKQEMERLPMRSPDQKMESAYDLWAMAKIAEIIGEKADSEQYRQRSVSLFEETWKKEFMNVTPAFEVMKNNGLYQGTRWQYRWAAPQYIDKMIEWVGQDSLRLQLTYFFDHHLYNQGNEPDIHVPYLFNRLGAPEKTQQIVRSLMTEPMIHKYGGNSEFKTPYLGKAFKNAPEGYSPEMDEDDGTMSAWYVFGAMGFYPLLVGDEYYDLTSPLFDRVLLRLTNGNVLTIQTEGRKKKDAPIKSIHFNGKKIADYRISHNELIKGGELIYNYK
As to B2, the kcat/Km result in data set [5] was “Not Active”; in [6] it was 1.58 M⁻¹ s⁻¹. For the same protein, the Km entry in [7] was “Not Active”; in data set [8], 610 µM. Moreover, the catalytic constant (kcat) entry is “Not Active” in data set [7] and 0.001 s⁻¹ in [8].

B3: Alpha-1,2-mannosidase (BT_3991) (Bacteroides thetaiotaomicron), Q8A0N0 (protein)
chain: MKLKTLLIGCFGGFIMLNSCTESPSVKDYSAYVNPFIGTGGHGHTFPGAVVPHGMIQPSPDTRIDGWDACSGYYYDDNTINGFSHTHVSGTGCCDYGDVLLMPTVGKPQYLTTDPESQKLAYASAFSHENETAEPGYYSVFLDTYQVKAEITATKRGAIHRYTFPESTESGFIIDLDYSLQRQTNYEMEIEVISDTEICGHKKTTYWAFDQYINFYAKFSKPFAYTLITDSVTMDNGKRLPVCKAVLHFNTKKDEEVLVKVGVSAVDIAGARKNVESEIPEWDFDKVRKDARTAWNNYLSKIDITTSDKEDKTIFYTALYHTAISPNLFTDADGRYLGMDLEVHQGDTINPLYTVFSLWDTFRALHPLMTIIDPNLNNQFINSLIRKHQEGGIYPMWDLASNYTGTMIGYHAVPVIVDAYMKGYRNFDAHEAYKASLRAAEYDTTGIKCPDLVLPHLMPKAKYYKNAIGYIPCDRENESVAKALEYAYDDWCISIFAEAMNDFENKAKYERFAKAYEFYFDKSTRFMRGLDSNGEWRTPFNPRASTHRSDDYCEGTAWQWTWFVPHDVEGLVKLMGGEDAFVEKLDSLFTVDSSLDGETTSADISGLIGQYAHGNEPSHHVIHLYNYVNRPWRTQELVDSVYRSQYANNVDGLSGNEDCGQMSAWYILNSMGFYQVCPGKPVYSIGRPAFDKAVINLPGEKTFSIVAKNNSKSNKYIESVLLNGKPLDTPFFGHQDIVAGGVMEIRMTDHPTQWGVRQ
For B3, the catalytic efficiency (kcat/Km) in [9] stood at 0.917 M⁻¹ s⁻¹. In data set [10], the Km was determined as 2700 µM and the kcat is 0.0025 s⁻¹.
